These results are taken from PMC2952836.

Assay [1] concerns the target human α-thrombin (human) (UniProt P00734).
For assay [2] the target is unchanged. The assay can be described thus: kinetics of thrombin inactivation.

In the case of “deglycosylated plasma heparin cofactor II (from UniProt P05546 20-499) (natural protein)”, in the assay with human α-thrombin (human) [1], the second-order rate constant of uncatalyzed thrombin inactivation (no GAG) is 420 M⁻¹ s⁻¹. The same substance came in with a K (TH,HCII), dissociation constant of ternary complex formation with heparin in the assay with human α-thrombin (human) [2] of 0.018 µM. For the substance “native plasma heparin cofactor II (from UniProt P05546 20-499) (natural protein)”, the K (TDS,HCII), dissociation constant of ternary complex formation with DS in the assay with human α-thrombin (human) [2] amounted to 0.022 µM.
